Test results: patent US20050003401, “Pfu replication accessory factors and methods of use” (Stratagene, published 2005)

How the values were obtained:
[1] = biological target: SSB (single-stranded DNA binding protein) (Escherichia coli, UniProt P0AGE0 P0AGE0:2-178); assay: EMSA; TE buffer; 95 C 10 min then 72 C 2 min; conditions: tags: Stratagene Perfect Match; chain copies: 4
Method: (§1) 50 ng of a 38-mer oligo was incubated with E. coli SSB (lane 1), water (lane 2), or P. furiosus RFA (lanes 3-7) in TE buffer (lanes 1-3), 1×cloned Pfu buffer (lane 4), 50 mM Tris pH 8.5, 25 mM KCl, 2 mM MgCl₂ (lane 5), 50 mM Tris pH 8.5, 25 mM KCl, 5 mM MgCl₂ (lane 6), or 50 mM Tris pH 8.5, 25 mM KCl, 2 mM ZnCl₂ (lane 7). Samples were incubated at 95° C. for 10 minutes, followed by 72° C. for 2 minutes prior to loading on a 4-20% acrylamide gradient gel in 1×TBE buffer. Bands were visualized by SYBR green staining and UV illumination.
(§2) To assess function, P. furiosus RFA was tested for single-stranded DNA binding activity in a gel shift assay (FIG. 18). […] The degree of migration of the oligo is related to the mass of the protein-DNA complex and the formation of protein multimers. E. coli SSB is known to form tetramers, but it is presently unknown whether P. furiosus RFA produces multimers as well.

[2] = biological target: T1, RFA (replication factor A) (Pyrococcus furiosus); assay: EMSA; partial shift; 95 C 10 min then 72 C 2 min; conditions: tags: N-terminal CBP
T1 chain: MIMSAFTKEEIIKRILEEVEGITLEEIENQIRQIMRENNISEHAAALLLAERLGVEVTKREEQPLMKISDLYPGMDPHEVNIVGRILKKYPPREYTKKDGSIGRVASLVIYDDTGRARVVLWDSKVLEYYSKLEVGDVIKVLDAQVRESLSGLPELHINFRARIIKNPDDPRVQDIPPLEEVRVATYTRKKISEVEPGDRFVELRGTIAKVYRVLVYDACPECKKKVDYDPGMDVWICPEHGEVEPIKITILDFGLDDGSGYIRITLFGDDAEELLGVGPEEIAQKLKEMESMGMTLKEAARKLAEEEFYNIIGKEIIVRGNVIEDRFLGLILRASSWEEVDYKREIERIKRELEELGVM
Method: as §1, §2

Chain of SSB (single-stranded DNA binding protein) (P0AGE0 2-178, one chain of several): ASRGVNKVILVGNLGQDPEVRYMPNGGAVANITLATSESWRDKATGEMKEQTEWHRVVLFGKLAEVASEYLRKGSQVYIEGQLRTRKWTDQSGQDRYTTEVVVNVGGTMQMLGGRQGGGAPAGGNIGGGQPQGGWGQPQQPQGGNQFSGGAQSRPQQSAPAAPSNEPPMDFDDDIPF

**Q.** Which results are given for GGTTTTCCCAGTCACGACGTTGTAAAACGACGGCCAGT (ssDNA) [38-mer oligo]?
**A.** binding result [1]: binds; binding result [2]: binds
